Data as given in patent US9540428B2, “Extracellular matrix heparin-binding domains” (EPFL-TTO, priority 2012, dated 2017).

T1: FGF-18 (Homo sapiens, UniProt O76093)
T1 sequence (O76093 28-207): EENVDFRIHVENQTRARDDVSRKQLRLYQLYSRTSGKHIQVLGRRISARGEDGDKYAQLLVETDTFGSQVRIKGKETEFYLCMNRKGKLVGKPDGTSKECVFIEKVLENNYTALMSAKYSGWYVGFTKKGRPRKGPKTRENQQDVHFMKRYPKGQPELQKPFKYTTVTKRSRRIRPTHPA

T2: factor XIIIa (Homo sapiens, UniProt P00488)
T2 sequence (P00488 39-732 limits assumed): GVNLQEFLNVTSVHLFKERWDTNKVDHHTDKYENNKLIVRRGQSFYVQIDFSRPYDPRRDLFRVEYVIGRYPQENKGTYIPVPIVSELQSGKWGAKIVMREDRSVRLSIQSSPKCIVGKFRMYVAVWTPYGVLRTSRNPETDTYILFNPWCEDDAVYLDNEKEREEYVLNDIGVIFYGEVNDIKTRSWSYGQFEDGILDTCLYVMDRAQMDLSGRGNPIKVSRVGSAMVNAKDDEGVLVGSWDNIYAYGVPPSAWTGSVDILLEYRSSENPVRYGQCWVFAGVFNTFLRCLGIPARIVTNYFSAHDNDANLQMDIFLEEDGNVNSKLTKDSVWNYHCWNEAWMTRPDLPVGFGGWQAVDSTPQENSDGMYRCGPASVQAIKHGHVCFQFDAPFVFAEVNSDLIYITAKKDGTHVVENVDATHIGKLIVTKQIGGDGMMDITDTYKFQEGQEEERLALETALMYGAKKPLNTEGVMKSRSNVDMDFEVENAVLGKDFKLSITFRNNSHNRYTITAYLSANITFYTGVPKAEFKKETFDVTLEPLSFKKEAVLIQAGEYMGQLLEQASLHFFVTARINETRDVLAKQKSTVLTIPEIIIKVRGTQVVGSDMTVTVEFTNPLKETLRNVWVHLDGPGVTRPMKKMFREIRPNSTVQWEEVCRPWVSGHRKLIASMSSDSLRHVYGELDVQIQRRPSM

T3: FGF-5 (Homo sapiens, UniProt P12034)
T3 sequence (P12034 21-268): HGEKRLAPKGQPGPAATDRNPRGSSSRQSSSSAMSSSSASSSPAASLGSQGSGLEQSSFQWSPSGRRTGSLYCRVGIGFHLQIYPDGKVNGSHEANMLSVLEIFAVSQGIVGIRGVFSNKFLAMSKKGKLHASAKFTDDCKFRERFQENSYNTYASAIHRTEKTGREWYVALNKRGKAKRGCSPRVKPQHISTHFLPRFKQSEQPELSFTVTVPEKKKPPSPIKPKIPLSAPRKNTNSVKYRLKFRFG

B1: TNC III1-5: recombinant tenascin C fibronectin type III repeats 1-5 (E622 to A1074) with transglutaminase substrate NQEQVSPL and 6×His tag, SEQ ID NO:1 (protein)
chain: METDTLLLWVLLLWVPGSTGDAAQPAIEGRNQEQVSPLGGSEVSPPKDLVVTEVTEETVNLAWDNEMRVTEYLVVYTPTHEGGLEMQFRVPGDQTSTIIQELEPGVEYFIRVFAILENKKSIPVSARVATYLPAPEGLKFKSIKETSVEVEWDPLDIAFETWEIIFRNMNKEDEGEITKSLRRPETSYRQTGLAPGQEYEISLHIVKNNTRGPGLKRVTTTRLDAPSQIEVKDVTDTTALITWFKPLAEIDGIELTYGIKDVPGDRTTIDLTEDENQYSIGNLKPDTEYEVSLISRRGDMSSNPAKETFTTGLDAPRNLRRVSQTDNSITLEWRNGKAAIDSYRIKYAPISGGDHAEVDVPKSQQATTKTTLTGLRPGTEYGIGVSAVKEDKESNPATINAATELDTPKDLQVSETAETSLTLLWKTPLAKFDRYRLNYSLPTGQWVGVQLPRNTTSYVLRGLEPGQEYNVLLTAEKGRHKSKPARVKASTEQAGGGSHHHHHH
modifications: Tenascin III signal sequence with polyhistidine tag
B2: Fg β15-66: heparin-binding domain of human fibrinogen β chain aa15-66 (SEQ ID NO:8); construct with TG substrate and His tag, SEQ ID NO:2 (protein)
chain: GSNQEQVSPLGHRPLDKKREEAPSLRPAPPPISGGGYRARPAKAAATQKKVERKAPDAGGCGHHHHHH
modifications: GS linker, transglutaminase substrate, the Fg beta15-66, with a Histidine tag

Legend:
[1] = biological target: T1, FGF-18; experiment: ELISA binding to coated FGF-18; conditions: 50 nM cytokine coated
Experimental: (§1) ELISA plates were coated with cytokines or BSA and further incubated with TNC III1-5 to analyze binding of TNC III1-5 to a wide variety of cytokines. […] Results are depicted in FIG. 3. Method: 50 nM of cytokine was coated for (1 hr, 37° C.). After blocking with 2% BSA (1 hr, RT). 100 nM TNC III1-5 was applied in PBST (0.05% tween, 0.1% bovine serum albumin (BSA)) (1 hr, RT). TNC III1-5 was detected with horseradish peroxidase (HRP)-anti-HIS in PBST (1 hr, RT) and developed with 3,3′,5,5′-tetramethylbenzidine (TMB), a soluble colorimetric HRP […]. Addition of sulfuric acid stop solution changes the color to yellow, enabling accurate measurement of the intensity at 450 nm using a spectrophotometer or plate reader. […] Heparin (4 μM) was added to TNC III1-5 to test the effect of blocking the heparin binding site of TNC III1-5, which has been defined as domain TNC III5 (Weber, Zimmermann, et al., 1995).

[2] = biological target: PDGF-AA (Homo sapiens, UniProt P04085); experiment: ELISA binding to coated PDGF-AA; conditions: 50 nM cytokine coated
Experimental: as §1

[3] = biological target: T2, factor XIIIa; experiment: Transglutaminase substrate activity (TAMRA, fibrinogen, PEG-lysine with factor XIIIa); assay type: biochemical; conditions: with and without factor XIIIa
Experimental: The activity of the transglutaminase substrate (TG: NQEQVSPL) (SEQ ID NO:10) of the engineered protein TG-TNC III1-5 was confirmed. FIG. 12 depicts results. Methods: A) The TG activity of TG-TNC III1-5 was tested by reaction with a fluorescent TAMRA molecule, containing lysines, with and without the presence of factor XIIIa, the TAMRA molecule, or TG-TNC III1-5. […] B) The TG activity of TG-TNC III1-5 was tested by reaction with fibrinogen, with and without the presence of factor XIIIa, fibrinogen, or TG-TNC III1-5. Fibrinogen or no protein was coated on an ELISA plate (1 hr, 37° C.), blocked with 2% BSA (1 hr, RT), reacted with or without TG-TNC III1-5 or factor XIIIa C) The TG activity of TG-TNC III1-5 was tested by reaction with PEG-lysines. A robotic spotter was used to bind TG-TNC III1-5 inside 450 μm spots (Gobaa, Hoehnel, et al., 2011), and an immuno-fluorescent stain was used to visualize the location and distribution of TG-TNC III1-5 onto the PEG. D) TG-TNC III1-5 and TG-FN III9*-10,TNC III1-5 (5 μM) were incorporated into a 2% TG-PEG gel. After 2 washed with PBS, 98% and 96% respectively of the fragments was bound into gels, which were sequentially stained with HRP-conjugated anti-HIS, and developed with TMB to read an absorbance at 450 nm.

[4] = biological target: T3, FGF-5; experiment: ELISA binding to coated FGF-5; conditions: 50 nM cytokine coated
Experimental: as §1
ELISA plates were coated with cytokines or BSA and further incubated with Fg β15-66 to analyze binding of […] to a wide variety of cytokines. […] Results are depicted in FIG. 4. Method: The methods were analogous to those used in Example 3.

[5] = tested on: HUVEC cells; experiment: HUVEC proliferation with cytokines with or without fibrinogen or Fg β15-66; assay type: cell-based, human; conditions: 72 hours; ≧100-fold molar excess; VEGF-A165, PlGF-2, FGF-2
Experimental: To verify that cytokines bound to Fg β15-66 are still bioactive, the proliferation of HUVEC cells was tested for different cytokines with and without the presence of Fg β15-66. Method: HUVEC cells were stimulated with various cytokines: VEGF-A165, PlGF-2, and FGF-2 with or without fibrinogen or Fg β15-66 in excess (≧100-fold molar excess).

| Molecule | binding to FGF-18 (ELISA, signal above BSA background) [1] | binding to PDGF-AA (ELISA, signal above BSA background) [2] | activity of the transglutaminase substrate (TG: NQEQVSPL) [3] | binding to FGF-5 (ELISA, signal above BSA background) [4] | synergistic effect on HUVEC proliferation, cytokines plus protein vs cytokines alone [5] |
| --- | --- | --- | --- | --- | --- |
| B1 | positive binding | positive binding | confirmed |  |  |
| B2 |  |  |  | positive binding | no synergistic effect |
